Among the data in patent US20250282868A1 are Isotype control on CT26-TREM2 MFI values, retold here.

In test [1] the target is mouse TREM2 (mouse) (UniProt Q99NH8). The experiment in a line: MFI on CT26 cells over-expressing mouse TREM2 and DAP12; control in the row of Ab52.
Test [2] has the same target. As to the kind of experiment: MFI on CT26 cells over-expressing mouse TREM2 and DAP12; control in the row of PN-37012.
The target is the same in test [3]. The experiment in a line: MFI on CT26 cells over-expressing mouse TREM2 and DAP12; control in the row of EOS006162.
For test [4] the target is unchanged. The experiment in a line: MFI on CT26 cells over-expressing mouse TREM2 and DAP12; control in the row of EOS006163.
The target is the same in test [5]. As to the kind of experiment: MFI on CT26 cells over-expressing mouse TREM2 and DAP12; control in the row of EOS006164.
Test [6] shares this target. The experiment in a line: MFI on CT26 cells over-expressing mouse TREM2 and DAP12; control in the row of EOS006165.
The target is the same in test [7]. The experiment in a line: MFI on CT26 cells over-expressing mouse TREM2 and DAP12; control in the row of EOS006166.
Test [8] has the same target. As to the kind of experiment: MFI on CT26 cells over-expressing mouse TREM2 and DAP12; control in the row of EOS006167.
The target is the same in test [9]. The experiment in a line: MFI on CT26 cells over-expressing mouse TREM2 and DAP12; control in the row of EOS006168.
The target is the same in test [10]. The experiment in a line: MFI on CT26 cells over-expressing mouse TREM2 and DAP12; control in the row of EOS006169.
Test [11] has the same target. As to the kind of experiment: MFI on CT26 cells over-expressing mouse TREM2 and DAP12; control in the row of EOS006170.
Test [12] shares this target. The experiment in a line: MFI on CT26 cells over-expressing mouse TREM2 and DAP12; control in the row of EOS006172.
The target is the same in test [13]. As to the kind of experiment: MFI on CT26 cells over-expressing mouse TREM2 and DAP12; control in the row of EOS006173.
The target is the same in test [14]. As to the kind of experiment: MFI on CT26 cells over-expressing mouse TREM2 and DAP12; control in the row of EOS006174.
For test [15] the target is unchanged. The experiment in a line: MFI on CT26 cells over-expressing mouse TREM2 and DAP12; control in the row of EOS006175.
The target is the same in test [16]. As to the kind of experiment: MFI on CT26 cells over-expressing mouse TREM2 and DAP12; control in the row of EOS006176.
Test [17] shares this target. As to the kind of experiment: MFI on CT26 cells over-expressing mouse TREM2 and DAP12; control in the row of EOS006177.
Test [18] shares this target. The experiment in a line: MFI on CT26 cells over-expressing mouse TREM2 and DAP12; control in the row of EOS006178.
Test [19] has the same target. The experiment in a line: MFI on CT26 cells over-expressing mouse TREM2 and DAP12; control in the row of EOS006179.
Test [20] shares this target. The experiment in a line: MFI on CT26 cells over-expressing mouse TREM2 and DAP12; control in the row of EOS006180.
The target is the same in test [21]. The experiment in a line: MFI on CT26 cells over-expressing mouse TREM2 and DAP12; control in the row of EOS006181.

Sequence of mouse TREM2 (mouse) (Q99NH8 19-227): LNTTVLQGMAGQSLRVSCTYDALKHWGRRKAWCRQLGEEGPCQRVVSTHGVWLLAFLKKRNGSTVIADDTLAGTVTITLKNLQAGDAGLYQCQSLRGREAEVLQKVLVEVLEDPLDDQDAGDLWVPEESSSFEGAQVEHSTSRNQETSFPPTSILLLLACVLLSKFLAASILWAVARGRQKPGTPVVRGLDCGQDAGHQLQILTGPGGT

For the substance Isotype control (antibody), the Isotype control on CT26-TREM2 MFI in the test with mouse TREM2 (mouse) [1] turned out to be 402 MFI; in the test with mouse TREM2 (mouse) [2], 302 MFI; with mouse TREM2 (mouse) [3], 2170 MFI; with mouse TREM2 (mouse) [4] it was 402 MFI; with mouse TREM2 (mouse) [5], 345 MFI; with mouse TREM2 (mouse) [6] it was 2170 MFI. Besides, the Isotype control on CT26-TREM2 MFI with mouse TREM2 (mouse) [7] was 295 MFI; with mouse TREM2 (mouse) [8] it was 2170 MFI; with mouse TREM2 (mouse) [9], 2170 MFI; with mouse TREM2 (mouse) [10], 679 MFI; with mouse TREM2 (mouse) [11], 679 MFI; with mouse TREM2 (mouse) [12], 2170 MFI. The Isotype control on CT26-TREM2 MFI with mouse TREM2 (mouse) [13] was found to be 679 MFI; with mouse TREM2 (mouse) [14], 345 MFI; in the test with mouse TREM2 (mouse) [15], 679 MFI; with mouse TREM2 (mouse) [16], 345 MFI; in the test with mouse TREM2 (mouse) [17], 345 MFI; in the test with mouse TREM2 (mouse) [18] it was 345 MFI. Further, the values for the Isotype control on CT26-TREM2 MFI with mouse TREM2 (mouse) [19], with mouse TREM2 (mouse) [20] and in the test with mouse TREM2 (mouse) [21] were 679 MFI, 2170 MFI and 345 MFI, respectively.
